# Measurements taken from the nanobody polyreactivity screen of Harvey et al. (2022).
# Test: yeast display, Sf9 membrane polyspecificity reagent, FACS + sequencing; frameworks hold sequencing errors
# How it was run: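 Nanobodies came from a synthetic yeast display library in Saccharomyces cerevisiae BJ5465, induced with galactose for 36–48 hours and stained for 1 hour at 4 °C with 10% biotinylated, detergent-solubilized Sf9 membrane reagent. Cells were enriched on streptavidin microbeads and then FACS-sorted, with low and high (top ~1%) gates set on anti-HA fluorescence for expression and streptavidin fluorescence for reagent binding. Each polyreactivity label reflects the gate a clone came from. Genes were amplified by colony PCR, sequenced by MiSeq 2 × 250 and filtered by CDR length.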
row,Sequence,polyreactivity (PSR sort gate)
1,QDQLVESGGGLVQAGGSLRLSCAASGSTFGYARGWYRQAPGKERELVAAITSTGGSTYYADSVKGRFTISRDNAKNTVYLQMNSLKPEDTAVYYCAAQVGRVYVVYPVYKYGYWGQGTQVTVSS,high polyreactivity
2,QDQLVESGGGLVQAGGSLRLSCAASGSTFPLYAMGSYREAPGKERELVADITVSGGSTYYADSVKGRFTISRDNAKNTVYLQMNSLNPEDTAVYYCNADDRSPFPDYWWYPYDYDYGGQGTQVTVSS,low polyreactivity
3,QDQLVESGGGLVQAGGSLRLSCAASGSTFPPYAMGWNRQAPGKERELVDTSTRIGGSTYYADSVKGRFTISRDNAKKTVYLQKNSLKPEDTALYYCTARRYQSYRYYYWGQGTQVTVSS,high polyreactivity
4,QDQLVESGGGLVQAGGSLRLSCAASGSTFSRNAMGWYRQAPGKERELVAAISWRGGRTYYADSVKGRFTISRDNAKNTVYLQMNSLKPEDTAVYYCAAEHKYRYDYWGQGTQVTVSS,low polyreactivity
5,QDQLVESGGGLVQAGGSLRLSCAASGSTFTYYAMGWYRQAPGKERELVAAIRNSDGTTYYADSVKGRFTLSRDTAKFTVYLQMNSLKPEDTAVYYCAAGPRGRWSTYDYWGQGTQVNVSS,low polyreactivity
6,QDQLVESGGGLVQAGGSLRLSCAASGSTFYIYAMGWYRQAPGQERELVARISGSRGSTYYADSVKGRFTISRDNAKNTVYLQMNSLKPEDTAVYYCAADDIYNYYQYYAFPYYRYDYWGQGTQVTVSS,low polyreactivity
7,QDQLVESGGGLVQAGGSLRLSCAASGSTLRGYAMGWYRQAPGKEREFVASITSSGSRTYADSVKGRFTISRDNAKNTVYLQMNSLKPEDTAVYYCAANRWPLKGYTSRYWGYWYNYWGQGTQVTVSS,high polyreactivity
8,QDQLVESGGGLVQAGGSLRLSCAASGTIFRGYTMGWYRQAPGKERELVAAISSSGGRTHYADSVKGRFTISRDNAKNTVYLQMNSLKPEDSAVYYCAADYYRTPKSGSSGLDYWGQGTQVTLSS,low polyreactivity
9,QDQLVESGGGLVQAGGSLRLSCAASGYIFRYYAMGWYRQAPGKERELVAAISWNGGRTYYADSVKGRFTISRDNAKNTVYLQMNSLKPEDTAVYYCNTYWDGAREYDYWGQGTQVTVSS,high polyreactivity
10,QDQLVESGGGLVQAGGSLRLSCAASGYIFSTYAMGWYRQAPGKERELVAAISSSGGSTYYADSVKGRFTISRDNAKNTVFLQMNSLKPEDTAVYYCYAGKHVRQRYDHWGQGTQVSVSS,high polyreactivity
11,QDQLVESGGGLVQAGGSLRLSCAASGYTFRYNAMGWYIQATGKERELVATITRGGSTNYADSVKGRFTISRDNAKNTVYLQMNSLKPEDTAVYYCNKEAAPLAFVPSYYGRDYWGQGTEVTVSS,low polyreactivity
12,QDQLVESGGGLVQAGGSLRLSCAASGYTFSYYAMGWYRQAPGKERELVARISWGGGSTYYADSVKGRFTISRDNAKNTVYLQMNSLKPEDTAVYYCNARDLGRDWYWPEDDYWGQGTQVTVSS,low polyreactivity
13,QDQLVESGGGLVQAGGSLRLSCAASRSIFYGYATRSYRQEPGKESELVAAISYSGDRTYYADSVKGRFTISRDNAKNTVYLQMNSLKPEDTAVYYCAAESRGVGAYYYRGQGTQVTVSS,high polyreactivity
14,QDQLVESGGGLVQAGGSLRLSCAASVRIFWLYAMGWYRQAPGKERELVAVISWSGGTTYYADSVKGRFTISRDNAKNTVYLQMNSLKPEDTAVYSCAAQVGFYTNYREFDYWGQGTQVTVSS,low polyreactivity
15,QDQLVESGGGLVQAGGSLRLSCAASVSIFGSYAMGWYRQAPGKERELVAGITSSGGSTYYADSVKGRFTISRDNAKNTVYLQMNSLKPEDTAVYYCNAPLGWWQFYYCGQGTQVTVSS,high polyreactivity
16,QDQLVESGGGLVQAGGSLRLSCAAYGNTIIRYAMGWYRQAPGKERELVAAIAYSGGRTYYADSVKGRFTISRDNAKNTVFLQMNSLKPEDTAVYYCNAASRYGGDYWGQGTQVTVSS,high polyreactivity
17,QDQLVESGGGLVQAGGSLRLSCAAYGRIFRANVMGWYRQAPGKERELVAAINWSGGSTYYADSVKGRFTISRDIAKNTVYLQMNSLKPEDTAVYYCAAAYKWFGEGRFYYWGQGTQVTVSS,high polyreactivity
18,QDQLVESGGGLVQAGGSLRLSCAGSGSTFKRYAMGWYRQAPGKDRELVAAISRRGGSTYYADSVKGRFTISRDNAKNTVYLQMNSLKPEDTAVYYCAARGTGNIYDYWGQGTQVTVSS,high polyreactivity
19,QDQLVESGGGLVQAGGSLRLSCAPSGRTFGGYSMGWYRQAPGKERELVASNTSGGSTYYADSVKGRFTISRDNAKNTVYLQMNSLKPEDTAVYYCAAVTYFETSSRAIPSNDYWGQGTQVTVSS,low polyreactivity
20,QDQLVESGGGLVQAGGSLRLSCAPSGRTFRYNAMGWYIQAPVKERELVAAINWNCGSTYYADSVKGRFTISRDNAKNTVYLQMNSLKPEDTAVYYCNADFYHRYDWGQGTQVTVSS,high polyreactivity
21,QDQLVESGGGLVQAGGSLRLSCASSGSIITQYAMGWYRQAPGKERELVAAITSGGSPYADSVKGRFTISRDNAKNTVYLQMNSLKPEDTADYYCATPYSYRGVTFNYWGQGTQVTVSS,low polyreactivity
22,QDQLVESGGGLVQAGGSLRLSCASSGSTFNIYAMGWYRQAPGKERELVAAITSRGTSTYYADSVKGRFTISRDNAKNTVYLQMNSLKPEDTAVYYCAAEVSGNYYRYNYWGQGTQVTVSS,high polyreactivity
23,QDQLVESGGGLVQAGGSLRLSCASSVRTIYIYAMGWYRHPPGKESEFVASITGRGTRTYYADSVKGRFTISRDNAKNTVYLQMNSLTQEDTAVYYCNARGKVQSSYDEDYWGQGTQVTVSS,high polyreactivity
24,QDQLVESGGGLVQAGGSLRLSCDASGSIIQSYTMGWYRQAPGKERELVAAIDSGGSTYYADSVKGRFTISRDNAKNTVYLQMNSLKPEDTAVYYCAAEPDTYWYTYDYWGQGTQVTVSS,low polyreactivity
25,QDQLVESGGGLVQAGGSLRLSCDASGYIFQSNVLGWYRQAPGKERELVAAITVSGGSTYYADSVKGRFTISRDNAKNTVYLQMNSLKPEDTAVYYCAALVAHKGDYWGQGTQVTVSS,high polyreactivity
26,QDQLVESGGGLVQAGGSLRLSCSASGSIFRDKAMGWYRQAPGKERELVAAISIVGSTSYADSVKGRFTISRDNAKNTVYLQMNSLKPEDTAVYYCAADTFYSYYDMDYWGQGTQVTVSS,low polyreactivity
27,QDQLVESGGGLVQAGGSLRLSFAASGLTFRYYAMGWYRQAPGKERELVAAISSGGRTDYADSVKGRFTISRDNAKNTVYLQMNSLKPEDTAVYYCNARGRIRSYRQVRTYSAYNYWGQGTQVTVSS,high polyreactivity
28,QDQLVESGGGLVQAGGSLRLSFAASGNIFRYYAMGWYRQAPGKERELVAAISRSGGNTYYADSVKGRFTISRDNAKNTVYLQMNSLKTEDTAVYYCAVVLSTYSYADYDYWGQGTQVTLSS,high polyreactivity
29,QDQLVESGGGLVQAGGSLRLSGAASGRIFRTNAMGWSRQAPGKERELVAAISDSGADTSYADSVKGRFTISRDNAKQSVYLQMNSLKPEDTAVYYCNRGRVSYRYLKDYDYWGQGTQVTVSS,low polyreactivity
30,QDQLVESGGGLVQAGGSLRLSGAASGSTFGGNAMGWYRQAPGKERELVAAISSSGGSTYYADSVKGRFTISRDNAKYSVYLQMNRLKPEDTAVYYCAAMYHWTYDYWGQGTQVTVSS,low polyreactivity
